Reference: paper doi:10.1101/2023.08.23.554525

Molecular target: H1 hemagglutinin (A/New Caledonia/20/1999(H1N1)), recombinant HA trimer used for electron microscopy (influenza A virus A/New Caledonia/20/1999 (H1N1)) (UniProt Q6WG00)
Assay: cryo-EM structure

Substance: H1 hemagglutinin (A/New Caledonia/20/1999(H1N1)), recombinant HA trimer used for electron microscopy (from UniProt Q6WG00 1-565) (natural protein)
- stoichiometry N: 3
